Measured values from the supplement of paper PMC9112550, “Optimization of the antimicrobial peptide Bac7 by deep mutational scanning” (BMC Biology, 2022).
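Note: peptides expressed intracellularly from a pBAD plasmid library in pooled LB shake-flask culture, induced with 0.3% L-arabinose, DNA abundance read by NGS, three biological replicates, DESeq2 with apeglm shrinkage.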

The sequences below were run on Escherichia coli TOP10 (assay: shrunken log2 fold change of peptide-encoding DNA abundance (4.5 h post-induction vs induction); higher = less antimicrobial activity (less host growth inhibition)). Conditions: time post-induction: 4.5 h; library: site-saturation at positions 5, 18, 19, 20.
For RRIRERPPRLPRPRPRPHFCPRP, the “shrunken log2 fold change” value was -0.117. RRIRFRPPRLPRPRPRPWCNPRP was tested, and the “shrunken log2 fold change” value was -0.267. In the case of RRIRIRPPRLPRPRPRPRVTPRP, the “shrunken log2 fold change” value is reported as -0.0426. RRIRSRPPRLPRPRPRPHLEPRP was tested, and the “shrunken log2 fold change” value was -0.395. In the case of RRIRGRPPRLPRPRPRPWTRPRP, the “shrunken log2 fold change” value is reported as -0.0814. RRIRNRPPRLPRPRPRPKKVPRP was tested, and the “shrunken log2 fold change” value was -0.0914. With RRIRMRPPRLPRPRPRPCHWPRP the “shrunken log2 fold change” value was -0.022. With RRIRERPPRLPRPRPRPMEPPRP the “shrunken log2 fold change” value was 0.0704. For RRIRQRPPRLPRPRPRPWAVPRP, the “shrunken log2 fold change” value was 0.066. With RRIRGRPPRLPRPRPRPFHRPRP the “shrunken log2 fold change” value was -0.118. With RRIRQRPPRLPRPRPRPTRKPRP the “shrunken log2 fold change” value was -0.0205. In the case of RRIRSRPPRLPRPRPRPVFCPRP, the “shrunken log2 fold change” value is reported as -0.024. In the case of RRIRPRPPRLPRPRPRPIRDPRP, the “shrunken log2 fold change” value is reported as -0.015. With RRIRYRPPRLPRPRPRPACAPRP the “shrunken log2 fold change” value was -0.236. In the case of RRIRLRPPRLPRPRPRPMNFPRP, the “shrunken log2 fold change” value is reported as -0.102. In the case of RRIRNRPPRLPRPRPRPDGQPRP, the “shrunken log2 fold change” value is reported as -0.0321. For RRIRCRPPRLPRPRPRPYPLPRP, the “shrunken log2 fold change” value was -0.191. With RRIRCRPPRLPRPRPRPCDMPRP the “shrunken log2 fold change” value was -0.277. With RRIRDRPPRLPRPRPRPMFTPRP the “shrunken log2 fold change” value was -0.174. For RRIRYRPPRLPRPRPRPHSAPRP, the “shrunken log2 fold change” value was -0.121. For RRIRTRPPRLPRPRPRPQHKPRP, the “shrunken log2 fold change” value was -0.0821. In the case of RRIRWRPPRLPRPRPRPADFPRP, the “shrunken log2 fold change” value is reported as -0.0275. For RRIRSRPPRLPRPRPRPVLPPRP, the “shrunken log2 fold change” value was -0.167. RRIRGRPPRLPRPRPRPVMAPRP was tested, and the “shrunken log2 fold change” value was 0.745. For RRIRIRPPRLPRPRPRPFSRPRP, the “shrunken log2 fold change” value was -0.0685. RRIRRRPPRLPRPRPRPQMIPRP was tested, and the “shrunken log2 fold change” value was -0.0521. For RRIRLRPPRLPRPRPRPPLYPRP, the “shrunken log2 fold change” value was 1.61. In the case of RRIRGRPPRLPRPRPRPHYIPRP, the “shrunken log2 fold change” value is reported as -0.0882. For RRIRARPPRLPRPRPRPRYHPRP, the “shrunken log2 fold change” value was -0.135. With RRIRRRPPRLPRPRPRPPHKPRP the “shrunken log2 fold change” value was 1.77. With RRIRCRPPRLPRPRPRPSPSPRP the “shrunken log2 fold change” value was 0.128. RRIRARPPRLPRPRPRPYGAPRP was tested, and the “shrunken log2 fold change” value was -0.206. In the case of RRIRCRPPRLPRPRPRPQQKPRP, the “shrunken log2 fold change” value is reported as 0.13. For RRIRMRPPRLPRPRPRPADSPRP, the “shrunken log2 fold change” value was 0.264. With RRIRIRPPRLPRPRPRPDHQPRP the “shrunken log2 fold change” value was -0.0128. With RRIRLRPPRLPRPRPRPEMRPRP the “shrunken log2 fold change” value was 0.0659. In the case of RRIRPRPPRLPRPRPRPDPPPRP, the “shrunken log2 fold change” value is reported as 0.249. In the case of RRIRKRPPRLPRPRPRPAVIPRP, the “shrunken log2 fold change” value is reported as 0.076. With RRIRHRPPRLPRPRPRPIKPPRP the “shrunken log2 fold change” value was -0.236. With RRIRFRPPRLPRPRPRPQFFPRP the “shrunken log2 fold change” value was -0.193. With RRIRFRPPRLPRPRPRPLWKPRP the “shrunken log2 fold change” value was -0.0606. For RRIRHRPPRLPRPRPRPGGQPRP, the “shrunken log2 fold change” value was 0.0463. For RRIRYRPPRLPRPRPRPLLLPRP, the “shrunken log2 fold change” value was -0.586. RRIRLRPPRLPRPRPRPDFMPRP was tested, and the “shrunken log2 fold change” value was -0.277. In the case of RRIRERPPRLPRPRPRPFFWPRP, the “shrunken log2 fold change” value is reported as 0.138. For RRIRRRPPRLPRPRPRPPQMPRP, the “shrunken log2 fold change” value was 1.24. RRIRERPPRLPRPRPRPMHIPRP was tested, and the “shrunken log2 fold change” value was -0.185. RRIRVRPPRLPRPRPRPEQYPRP was tested, and the “shrunken log2 fold change” value was -0.394. For RRIRGRPPRLPRPRPRPFICPRP, the “shrunken log2 fold change” value was 0.268. For RRIRVRPPRLPRPRPRPPPHPRP, the “shrunken log2 fold change” value was 0.676. In the case of RRIRFRPPRLPRPRPRPDQIPRP, the “shrunken log2 fold change” value is reported as -0.0948. With RRIRSRPPRLPRPRPRPPGEPRP the “shrunken log2 fold change” value was 0.756. With RRIRHRPPRLPRPRPRPAVLPRP the “shrunken log2 fold change” value was 0.0684. RRIRCRPPRLPRPRPRPVNFPRP was tested, and the “shrunken log2 fold change” value was -0.484. With RRIRGRPPRLPRPRPRPYARPRP the “shrunken log2 fold change” value was 0.416. In the case of RRIRPRPPRLPRPRPRPSSDPRP, the “shrunken log2 fold change” value is reported as -0.317. With RRIRSRPPRLPRPRPRPVWPPRP the “shrunken log2 fold change” value was 0.434. In the case of RRIRQRPPRLPRPRPRPKYHPRP, the “shrunken log2 fold change” value is reported as -0.171. In the case of RRIRRRPPRLPRPRPRPLFEPRP, the “shrunken log2 fold change” value is reported as 0.245. RRIRPRPPRLPRPRPRPVYYPRP was tested, and the “shrunken log2 fold change” value was -0.348. For RRIRNRPPRLPRPRPRPWMMPRP, the “shrunken log2 fold change” value was -0.594. RRIRVRPPRLPRPRPRPIIFPRP was tested, and the “shrunken log2 fold change” value was -0.286. In the case of RRIRARPPRLPRPRPRPMTVPRP, the “shrunken log2 fold change” value is reported as -0.0938. With RRIRGRPPRLPRPRPRPAAYPRP the “shrunken log2 fold change” value was 0.929. With RRIRVRPPRLPRPRPRPPWIPRP the “shrunken log2 fold change” value was 0.218. In the case of RRIRIRPPRLPRPRPRPEYCPRP, the “shrunken log2 fold change” value is reported as -0.125. In the case of RRIRERPPRLPRPRPRPLKQPRP, the “shrunken log2 fold change” value is reported as -0.121. RRIRFRPPRLPRPRPRPCATPRP was tested, and the “shrunken log2 fold change” value was 0.0672. With RRIRYRPPRLPRPRPRPFIVPRP the “shrunken log2 fold change” value was -0.173. RRIRNRPPRLPRPRPRPWMVPRP was tested, and the “shrunken log2 fold change” value was 0.131. With RRIRDRPPRLPRPRPRPRATPRP the “shrunken log2 fold change” value was 0.614. With RRIRYRPPRLPRPRPRPEKGPRP the “shrunken log2 fold change” value was -0.00176. With RRIRQRPPRLPRPRPRPPMLPRP the “shrunken log2 fold change” value was 0.117. RRIRYRPPRLPRPRPRPMDFPRP was tested, and the “shrunken log2 fold change” value was -0.205. With RRIRNRPPRLPRPRPRPGSRPRP the “shrunken log2 fold change” value was -0.0159.
